In patent publication US20090307790:

Assays:
[1] = biological target: Rac1, produced as GST-fusion protein in E. coli BL21 [GST: P08515]
[2] = biological target: RhoA, produced as GST-fusion protein in E. coli BL21 [GST: P08515]
[3] = biological target: cdc42, produced as GST-fusion protein in E. coli BL21 [GST: P08515]

B1: catalytic domain of wild type Tagap1, produced as GST-fusion protein in E. coli BL21 (protein)
chain: QPLSIICGENDTLPRPIQDILTILCLKGPSTEGIFRKAASEKARKELKEGLNCGVSVNLKQLPVHLLAVVFKDFLRGIPLKLLSCDLFEDWMGALEKPTEEDRIEALKQVAGGLPRPNLLLLRHLLYVLHLISKNAEVNKMDSSNLAICIGPNMLTLKNDQSLSFQAQKDLNNKVKILVEFLIDNCFEIF
- GTPase activity of Rac1 (in vitro GAP assay) [1]: hardly (Rac1) stimulated
- GTPase activity of RhoA (GAP-activity assay, FIG. 2e) [2]: Tagap1 enhances the GTPase activity of RhoA
- GTPase activity of RhoA (in vitro GAP assay) [2]: the GTPase activity of RhoA was strongly enhanced by the GAP domain of Tagap1
- GTPase activity of Cdc42 (in vitro GAP assay) [3]: only mildly (Cdc42) ... stimulated
